The test system of data set [1] is Abz-GGFLRKHGQ-EDDnp. The experiment in a line: Enzyme activity assay, kinetics of IDE and ATP binding site mutants with fluorogenic substrate. Format: biochemical. The note with it: rat IDE, Abz-GGFLRKHGQ-EDDnp as substrate. How it is done: Reactions were conducted in 50 mM Tris-HCl, pH 7.4.
IDE activity was determined by measuring the increase in fluorescence that occurs when the enzyme cleaves the internally quenched fluorogenic substrate Abz-[…]-EDDnp (SEQ ID NO:3) at the R—K bond (Song et al., Journal of Biologial Chemistry 276, 1152-1155 (2001)). The reaction was followed on a SpectraMax Gemini XS fluorescence plate reader using an excitation and emission wavelengths of 318 nm and 419 nm, respectively. Initial velocities were determined using SoftMax Pro 4.0 and kinetic constants calculated using GraphPad Prism 4.0. ATPase activity was measured by following Pi release with acid-molybdate as described by Harder et al. (Harder et al., Biochemical Journal 298 (Pt 2), 395-401 (1994)).

The test system of data set [2] is Abz-GGFLRKHGQ-EDDnp. Kind of data set: Enzyme activity assay, kinetics of wild type rIDE and distal site mutants with fluorogenic substrate. Format: biochemical. How it is done: (§1) FIG. 17. Effects of distal site mutations. (A) Comparison of the kinetics of wild type IDE with the distal site mutants. Activity was measured with varying amounts of Abz-[…]-EDDnp (SEQ ID NO:3) substrate as indicated. Either hyperbolic (Michaelis-Menten equation) or sigmoidal curves (Hill equation) were fit to the data. (B) Effect of bradykinin on the activity of wild type IDE and the distal site mutants. (C) Activation of wild type IDE and distal site mutants by ATP. Relative activity is the fold activation above the level of the wild type enzyme alone.
The activity of IDE was measured by following the increase in fluorescence upon hydrolysis at the L-R bond of the fluorogenic peptide Abz-[…]-EDDnp (SEQ ID NO:3) on a SpectraMax Gemini XS fluorescence plate reader using an excitation wavelength of 318 nm and emission wavelength of 419 nm. Reactions were carried out in 200 μl volumes containing 50 mM Tris-HCl, pH 7.4, 1.92 μg of wild type rIDE, 4.6 μg of rIDE-V360S, 4.3 μg rIDE-I374S, or 1.63 μg of rIDE-Y609F. For measurements of activation by bradykinin, IDE activity was determined with 10 μM Abz-[…]-EDDnp (SEQ ID NO:3) as substrate in 50 mM Tris-HCl buffer, pH 7.4. The amount of protein was 0.5 μg for wild type rIDE and 5 μg for each of the IDE distal-site mutants. Data were analyzed using Softmax 4.0 (Molecular Devices) and kinetic parameters calculated with Prism (Graphpad Software). […] Under these assay conditions, both wild type and mutant rIDE are almost completely dimeric.

The target of data set [3] is T1, Abz-GGFLRKHGQ-EDDnp (Rattus norvegicus, UniProt P35559).
T1 construct: begin at methionine 42, which is believed to be the in vivo start site, and extend through the native C-terminal residue leucine 1019; hexahistidine with linker holding a TEV protease site (N, cleaved yes); made in house; host or cells: SF9 insect cells (baculovirus, pFastBac HTb)
T1 sequence (P35559 42-1019): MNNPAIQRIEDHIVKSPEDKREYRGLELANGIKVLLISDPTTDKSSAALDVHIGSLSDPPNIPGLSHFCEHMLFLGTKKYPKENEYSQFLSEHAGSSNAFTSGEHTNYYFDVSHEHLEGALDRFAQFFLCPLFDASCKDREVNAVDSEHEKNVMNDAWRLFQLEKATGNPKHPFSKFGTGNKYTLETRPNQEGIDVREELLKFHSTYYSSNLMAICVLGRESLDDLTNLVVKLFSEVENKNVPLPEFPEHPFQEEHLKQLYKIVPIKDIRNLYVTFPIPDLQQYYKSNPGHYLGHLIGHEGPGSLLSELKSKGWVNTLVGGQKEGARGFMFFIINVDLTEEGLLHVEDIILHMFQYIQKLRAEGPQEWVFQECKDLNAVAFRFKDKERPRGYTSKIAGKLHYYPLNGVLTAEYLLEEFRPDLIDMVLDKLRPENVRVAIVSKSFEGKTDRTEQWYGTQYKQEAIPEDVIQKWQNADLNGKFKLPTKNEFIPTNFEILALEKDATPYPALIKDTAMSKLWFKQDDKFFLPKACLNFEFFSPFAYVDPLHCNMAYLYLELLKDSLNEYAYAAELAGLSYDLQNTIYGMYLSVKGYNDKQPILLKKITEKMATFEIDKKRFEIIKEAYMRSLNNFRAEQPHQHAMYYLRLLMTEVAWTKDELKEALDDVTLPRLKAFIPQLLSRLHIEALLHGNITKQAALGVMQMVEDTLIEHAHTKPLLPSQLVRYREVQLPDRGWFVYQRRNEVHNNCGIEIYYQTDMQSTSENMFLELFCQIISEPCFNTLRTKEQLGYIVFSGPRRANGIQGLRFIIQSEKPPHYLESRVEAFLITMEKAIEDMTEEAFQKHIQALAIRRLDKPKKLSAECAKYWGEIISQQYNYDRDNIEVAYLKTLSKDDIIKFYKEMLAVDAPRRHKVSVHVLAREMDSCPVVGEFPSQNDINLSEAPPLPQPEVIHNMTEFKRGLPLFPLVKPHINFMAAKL
The experiment in a line: Activation by bradykinin, wild type rIDE and distal site mutants. Format: biochemical. Conditions: 10 μM Abz-GGFLRKHGQ-EDDnp as substrate. On the procedure: as §1
The activity of IDE was measured by following the increase in fluorescence upon hydrolysis at the L-R bond of the fluorogenic peptide Abz-[…]-EDDnp (SEQ ID NO:3) on a SpectraMax Gemini XS fluorescence plate reader using an excitation wavelength of 318 nm and emission wavelength of 419 nm. Reactions were carried out in 200 μl volumes containing 50 mM Tris-HCl, pH 7.4, 1.92 μg of wild type rIDE, 4.6 μg of rIDE-V360S, 4.3 μg rIDE-I374S, or 1.63 μg of rIDE-Y609F. For measurements of activation by bradykinin, IDE activity was determined with 10 μM Abz-[…]-EDDnp (SEQ ID NO:3) as substrate in 50 mM Tris-HCl buffer, pH 7.4. The amount of protein was 0.5 μg for wild type rIDE and 5 μg for each of the IDE distal-site mutants. Data were analyzed using Softmax 4.0 (Molecular Devices) and kinetic parameters calculated with Prism (Graphpad Software). […]

Data set [4] has as its target T1, Abz-GGFLRKHGQ-EDDnp. Conditions: reference [15]; cited from earlier work.

B1: IDE: Native rat insulin degrading enzyme (SEQ ID NO:1), expressed as hexahistidine fusion protein in Sf9 insect cells (protein, listed as Rattus norvegicus)
chain: MRNGLVWLLHPALPSTLHSILGARPPPVKRLCGFPKQIYSTMNNPAIQRIEDHIVKSPEDKREYRGLELANGIKVLLISDPTTDKSSAALDVHIGSLSDPPNIPGLSHFCEHMLFLGTKKYPKENEYSQFLSEHAGSSNAFTSGEHTNYYFDVSHEHLEGALDRFAQFFLCPLFDASCKDREVNAVDSEHEKNVMNDAWRLFQLEKATGNPKHPFSKFGTGNKYTLETRPNQEGIDVREELLKFHSTYYSSNLMAICVLGRESLDDLTNLVVKLFSEVENKNVPLPEFPEHPFQEEHLKQLYKIVPIKDIRNLYVTFPIPDLQQYYKSNPGHYLGHLIGHEGPGSLLSELKSKGWVNTLVGGQKEGARGFMFFIINVDLTEEGLLHVEDIILHMFQYIQKLRAEGPQEWVFQECKDLNAVAFRFKDKERPRGYTSKIAGKLHYYPLNGVLTAEYLLEEFRPDLIDMVLDKLRPENVRVAIVSKSFEGKTDRTEQWYGTQYKQEAIPEDVIQKWQNADLNGKFKLPTKNEFIPTNFEILALEKDATPYPALIKDTAMSKLWFKQDDKFFLPKACLNFEFFSPFAYVDPLHCNMAYLYLELLKDSLNEYAYAAELAGLSYDLQNTIYGMYLSVKGYNDKQPILLKKITEKMATFEIDKKRFEIIKEAYMRSLNNFRAEQPHQHAMYYLRLLMTEVAWTKDELKEALDDVTLPRLKAFIPQLLSRLHIEALLHGNITKQAALGVMQMVEDTLIEHAHTKPLLPSQLVRYREVQLPDRGWFVYQRRNEVHNNCGIEIYYQTDMQSTSENMFLELFCQIISEPCFNTLRTKEQLGYIVFSGPRRANGIQGLRFIIQSEKPPHYLESRVEAFLITMEKAIEDMTEEAFQKHIQALAIRRLDKPKKLSAECAKYWGEIISQQYNYDRDNIEVAYLKTLSKDDIIKFYKEMLAVDAPRRHKVSVHVLAREMDSCPVVGEFPSQNDINLSEAPPLPQPEVIHNMTEFKRGLPLFPLVKPHINFMAAKL
modifications: hexahistidine tag; wild-type Insulin Degrading Enzyme (IDE) from rat
As usually defined, the Hill coefficient is a measure of the steepness of the concentration-response curve. By Km is commonly meant the concentration of substrate that gives half-maximal velocity. In general, kcat refers to the maximal rate divided by the concentration of active sites. Usually Vmax stands for the rate approached at saturating substrate. In the case of B1, the “Hill coefficient” value in data set [1] is 2.1 ± 0.3; in data set [2] (rat IDE, Abz-GGFLRKHGQ-EDDnp as substrate, listed as Wild Type), 1.8 ± 0.16; in data set [2] (rat IDE, Abz-GGFLRKHGQ-EDDnp as substrate, listed as wild type enzyme), 1.80. In addition, the Km in data set [1] is 9.6 ± 0.7 mM; in data set [2] (rat IDE, Abz-GGFLRKHGQ-EDDnp as substrate), 0.0159 ± 0.00119 mM. In addition, the kcat in data set [1] came out at 0.0867 ± 0.0033 s⁻¹. In addition, the Vmax in data set [1] (50 mM Tris-HCl, pH 7.4) came to 47.2 ± 1.7 nmol/min/mg; in data set [2] (rat IDE, Abz-GGFLRKHGQ-EDDnp as substrate, 50 mM Tris-HCl, pH 7.4), 35.5 ± 11.6 nmol/min/mg. In addition, the Specific activity in data set [2] (Abz-GGFLRKHGQ-EDDnp substrate) is given as 8,131 nmol/min/mg. The “Heterotropic activation with bradykinin” value in data set [3] was “approximately 4 fold”. In addition, in data set [4], the “increase of cleavage rate of Abz-GGFLRKHGQ-EDDnp by ATP” value is “more than 40 fold”.

Source of the values: patent US8632989B1, “Mutant insulin degrading enzyme and methods of use” (University of Kentucky Research Foundation, priority 2011, dated 2014).
